From article PMC3781949 (Molecular microbiology, 2011) come the findings set out here.

This data set concerns the molecule itself. In words: SPR. In general terms: Surface plasmon resonance follows binding to a sensor surface in real time, without labels.

B1: Maf-His6, purified recombinant Maf (natural protein, B. subtilis, UniProt Q02169 1-189, looked up)
chain: MTKPLILASQSPRRKELLDLLQLPYSIIVSEVEEKLNRNFSPEENVQWLAKQKAKAVADLHPHAIVIGADTMVCLDGECLGKPQDQEEAASMLRRLSGRSHSVITAVSIQAENHSETFYDKTEVAFWSLSEEEIWTYIETKEPMDKAGAYGIQGRGALFVKKIDGDYYSVMGLPISKTMRALRHFDIRA
For B1, the binding result is “binds”.
